These results are taken from a protein production outcome set (Wang et al. 2014).

This series in a line: label from the status in PepcDB records.
“MEEASEGGGNDRVRNLQSEVEGVKNIMTQNVERILARGENLEHLRNKTEDLEATSEHFKTTSQKVARKFWWKNVKMIVLICVIVFIIILFIVLFATGAFS”: the protein production result was “failed”.
As for “MEEEEARQVVIDNDLKKKIKETVKKILKRSSLLEITEIKAREEASSELNLDLSRDPYKIIVREAVDSFIEKAIMTIDTEMGKLHTQIVEDVDGEVTENATKTTTKKKKKKKAKKKVEEEESSPA”, the protein production result is listed as “failed”.
For “MEEGKKMKRIIGMIVSLALLAGLLAGCSTSATGSNINTPAAQAEKTPGAGGSGAEEAAWPRTIVDATGKEITLTEQPQRIAILHSLYLEYFLALGTPPIASAGASTGDAMKALGEWETLKPYAGTAKIIDLGSARDLNLEAILGANPDVIVTFKGQGNLDKIYEQLEQIAPVILVDFSAPWQEQILACAEIVNKEADAQKLIKEIEDSVQSAKEKLSRHQDKTIAIFRTDGGKAFVTRGNKDYYDTFGIAKPEGYPDDYETLSLEAVAEMNPDYIIFQDFITTSQAFVKTQEASSVWQAMEAVKKGQVVYFDDSLNTFGPLATKLTAEKLIQIISD”, the protein production entry is reported as “failed”.
Regarding “MEEKRLVIVGTAHVSKRSVEEVAEVIEREKPDAVAVELCPRRYHALVHGQREEISVADVIRKGNVFMLLFQLILAYFQRKVGEETGVKPGSEMLAAIEKAREAGADVLLIDRDIGLTFTRFWQKLTFVEKIKLIFHLVRSTFSGDEIEVDEMLEEDVLDMLVKEFRKISPNAAKVLIDERDVYMAANLLNALSRYNRIVAVVGAGHRKGIEEALLKLKENPV”, the protein production entry is “failed”.
As for “MEEKSKYLSLVGAGALIGSISTVALLKLLSRSSLKQLNENPETNFLAGNGIESETRPDTVANGQDLLKDEIVSEHLTRNIQFFGLESQHKVTGSYVVVIGLGGVGSHAASMLLRSGVGKLLLVDFDQVSLSSLNRHAVATRADVGIPKAMCLKKHFSSIFPECHIEAKVMLYDSSSEEEILSGKPDFVLDCIDNIDTKVGLLAACVKRGLKVLSATGAGARADPTRIRVADIRESTIDPLSRSVRHRLRRKHGIEGGIPVVFSLEKPKAKLLPFEGTNGEDENPLDYQVVPGFRVRIIPVLGTIPAIFGQIMASYVITQLAGVQVQMEPIVNLDLDHYRLLHQRLIEHEETVYGTSAEVEVDVEEVMYIVKELWHGRSARDETAKDVGRGMWRAMNELMLVRWDAKKPATVSNLVLLKFKEADEHETKTLEEVKESETEFFERVSCVLKKAELDFYG”, the protein production entry was “failed”.
On to “MEELDEKLANRVQVSKRAVAKIVQVIDRLMQRNEKITHVLKGDSLASAGSGSGAGAGGEEEQQQASGDAETTTSSAGVHALEETLKQTHIEIMSENHKLQNLNTSLHEKFHTMSLKMKEYQDAHTAKETENAELKNQIDELQYDLEKIHCRNDKLENHLAEAIEKLKAYHQIYGDPNKSTNSAKTPTTTGSGGATTSVNSQLLEELQKELEEYRELAN”, for which the protein production result was “failed”.
As for “MEEMGSRSDTIMVASLNRETKEIKLVSVYRDTLLQLSDGTYNKANAAYAYGGEEEAVAMLNKNLDLNIEHYVSVDFSVLVHVIDALGGIDINVEEAENGMDIIPYLNNYVVEVIKNTGVDSAPFTQLGQQHLNGVQATAYARLRYGGGDDYKRTERQRQVLEQIAIKAQKAKLSTINKIIDKVFDNVKTNFTLTETIAYAKDVKSYIFGETQGFPYESTTADLDVGNSVVATDLASDVTKLHQFLFGENDYTPSSTVQSISEDISNSTYDTGESYDTEYDEYGYSQDYSGYDSGYTDNSYGTGGYQDSGYGDGSSGNGYTEDTGGDYVPPSDGGGTDSGSSDSNSQIPDTGTGDSGDTGGESLELEHHHHHH”, the protein production entry is given as “not failed”.
For the sequence “MEEVYHDEPEKFNHILHLIRDYFNHRDDRARITACMGELMRDHLNLLVRFFDFFPAEASEGLAQLQTIAATSVSPDSTIDDAVSYINTVKEAFHDEPAKYYEFFQLFYDIRYRLIDVAGGITRVEELLKAHKNLLVRLNAFLPPEAQRILHLKIEQRAASDINKRKRVASFIGKLKERFQGDDRHVYESFLEILTMYQEGNKSVNDLYQEVGFLVGTLWLDYTFS”, the protein production entry was “failed”.
With “MEEWSASEACLFEEALEKYGKDFNDIRQDFLPWKSLTSIIEYYYMWKTTDRYVQQKR” the entry was “not failed”.
On to “MEFDKSVQNYLIGANFSSGLVLDISKKENYILDRISILEQLSKDKKIIHLGCCDHIPLIQNKIENNTWLHSRLCSNSKRCIGVDINKDGIKYLKNNLGYEDVLCGDIIEEELNAIKEEHWDYMILGEILEHIDNPCLFLSDVQKKYHGIVDRLVITVPNALSYQNMKYTFLNKEYINTDHRYWFTPYTLGKIVTLAGMEVEKFFFCVPFPRDNGVFYALNPKSILFDFICKRYPPTRETLLMVAVV”, for which the protein production entry is on record as “failed”.
The value for “MEFHLPSVPMRKILSYLDAFSLLQIAQVNKRWNTFASTDVLWRKFCLKRWFFYEVVTLELLGTESWKQFFVCRTRQERAKSRAKPEDFTYKEIPVEIGAPRNAYYISGCGLTRDGQGKSVICVVTSMNTISTWDLHKGAVTWVSPVQPSYIKILATLPEMHIAVTVDIESTIKLWDCHNREALATNNMLSSCQSLKAVFTKDGPVVLAGDTSGNLLIFRIPDLHLISRVHVFQYGINELYCSPQKKWVFLSKKHSQILPKVFFMSSLLRTSEFSAPASTILSFPLCQRAFWTPRREDRITLMSIKGSKKITTFVTFDIKLEKEEIGNKIRVKEYAIANFSLKKFEDTLEWMGVSDKNVIVCSTGSSLLIYSITGLHLQTFPYGPGEILRLSVDPLHVIVTFIDGSLELFAWEERSPLLRRCYRLYNKRHMLHRRFVNKTLCDDVSIVRVMTNVPSSSFLMVYTLNNGS” was “failed”.
In the case of “MEFNDLGITIKELRIKKNISQSELCHGICSQSQISKIEKGMIYPSSILLYQLSERLGIDPNNIFALTQNKRLKYVENVKYVIKDCLKQKQYKELYEIVKKEKNLNNFQTKDEKQFLMWHEAIAIFMVDKSIKTALDFLNNALKLTLTNSDFLSEREIDIMQTMAIFYAENKEYEKSINIFKRCLTNFNKLDFPRDKEIKLKLMLNLAKCFDFTYQHEEAIKYIDKGIKLAINLNTLYLLGELFYLKGQCLLKMKQHNVEDVIYNWKKALFIFELTEKEYYTKMLPDELIELQNKKHS”, the protein production entry is recorded as “failed”.
As to “MEGEAQKKFTTGDKAYVKKDSMMYEIVVGCNRSCPCRDSQCIAQIQQVAEPTVANGTARYFVHYVSWNESFDEWVEELDLYPFNAESQQLMNDLRQQALTEKDTENSVPEQENQLKRKRPSKETEKREEPLDAYSLFNIPGSLKRQLMDEWETVTREKMTLTLPREYTVRRILEIWATTKSKQSDSNKDDSTVQEFVNGIFELFNISLGKMLLYRYERPQHNQIFHENESPPEPIDVYGAEHLLRLFVKLPGLVRHLQVPEEAVLNIAQKSYEMLRFLQKNSRKFFSPQYEPLKSQDDSVQGENEDDMDEE”, the protein production entry is listed as “not failed”.
For the sequence “MEGFLMKKTWIALSLLIAFSASSLLPMQAKEATLPKDERYHLVNTSEKGEYELLNTYDSYTEAEKNFQRLSKKYNNLGITYGDSFLQVEQGVVAFPTNSDCSLNTDYILDETNTNGYLNGCYGGDAAFLEYDSYTNQIKFKISGVVAWSDATALTVYPIEKLPNVSSFIVKDGILYHQLKSSATSPSFSSVLPLSKAPSYLKESTTYYSYDTHYFYEAYDQLIKDERLATHQHAINAKKPYYNYYQYLDHRSTTDYTPKQIQSYFKQNLGFQANITNFYDTDNYVHDILTQSLLYGNSEAFFQYQNQFGANALMMLSLSLNESALGKSYIAYNKNNLFGHAAFDSSAEESASRYQSVAASVYSHALHYLSESYLNPEAFQYYGGYFGNKAGGMNVAYASDPYWGEKSASYFMRMDRDMGYQDENNYQLGIAQGQAVKVYASASKKAKLLYTTEEGYDASFILQKKIKNKSGTWYQVQSDIALTKSKESIQDGSYPFATSIGYVKADDIDVITGAEKAANKSYLPITFDAVDGSFYPNTSSITLFVEKGQMPVILDPIKENALFDGWDITLEPATNALTYKATYKHIKNIEVIEKPQTKYNLGDTLNLKHGKIRVTFEDGSSKEVALNNDMVSGFHNDQSGKQRLTITYGGSTTYYDIEMDNQQEERINDVKKQAAHVIKTYMGKVGLNSEALDELIRLRNQLGQFDMQVLPRDQIRVIDRILQENLEPRYSVIIKDDTYDMQVSGLSIALQGESSFLNNIMPKTLRLDVNNDIPKEEKQFVEKVAKANGMNVASYLAIEGTDDFSTLKLQSQLVYSIQKPKKDIDHRIYSVYYISGKDIYQLPTTQSKNRIVFPNDKLGHYAVVWKHADSITHSKDFQEVNTIKQNGKDYIKVYILLPCIIILLTLALLALILYMRKRKIKPFKA”, the protein production result was “failed”.
Regarding “MEGFPVRVRVDVRFRDLDPLGHVNNAVFLSYMELARIRYFQRISPDWLEEGHFVVARMEVDYLRPILLGDEVFVGVRTVGLGRSSLRMEHLVTANGESAAKGLGVLVWLEGGRPAPLPEAIRERIRALEGRPL”, the protein production result is reported as “not failed”.
“MEGIQHPIPRTVEEVFSDFRGRRAGLIKALSTDVQKFYHQCDPEKENLCLYGLPNETWEVNLPVEEVPPELPEPALGINFARDGMQEKDWISLVAVHSDSWLISVAFYFGARFGFGKNERKRLFQMINDLPTIFEVVTGNAKQSKDQSANHNSSRSKSSGGKPRHSESHTKASKMSPPPRKEDESGDEDEDDEQGAVCGACGDNYGGDEFWICCDACEKWFHGKCVKITPAKAEHIKHYKCPSCTTSKKMKA”: the protein production entry is given as “failed”.
For “MEGISIYTSDNYTEEMGSGDYDSMKEPCFREENANFNKIFLPTIYSIIFLTGIVGNGLVILVMGYQKKLRSMTDKYRLHLSVADLLFVITLPFWAVDAVANWYFGNFLCKAVHVIYTVNLYSSVLILAFISLDRYLAIVHATNSQRPRKLLAEKVVYVGVWIPALLLTIPDFIFANVSEADDRYICDRFYPNDLWVVVFQFQHIMVGLILPGIVILSCYCIIISKLSHSKGHQKRKALKTTVILILAFFACWLPYYIGISIDSFILLEIIKQGCEFENTVHKWISITEALAFFHCCLNPILYAFLGAKFKTSAQHALTSVSRGSSLKILSKGKRGGHSSVSTESESSSFHSS”, the protein production result is “not failed”.
For “MEGLEAYDYHLPPEQIAQEGVEPRDMARLMVVYREGPFRVAHKRVRDLPEFLRPGDVLVFNESKVIPARLLARKPTGGKVEILLVRERSPGLWEALLGPARKAPPGTRLLLLSPKDLAPVPGLQAEVVAVEEDGVRLLRFQGDLVAHLEEVGEVPLPPYIKAKIPMERYQTVYARRPGSVAAPTAGLHFTPELLERLREMGVELRFLTLHVGPGTFRPVKGDPEKHEMHAEPYAIPEEVAEAVNRAKAEGRRVVAVGTTVVRALESAYREGVGVVAGEGETRLFIRPPYTFKVVDALFTNFHLPRSTLLMLVAAFLGRERTLEAYRLAVAEGYRFYSLGDAMLIL”, the protein production result is “not failed”.
On to “MEGLIPFLYKAIVMYKREGSFSSVLLSDHHSPSNAGYYMRLPGDSSSRFRTSDLRRFGTDRFGMLETTPSSSPSRVSTRNITKRT”, for which the protein production result is given as “failed”.
On to “MEGLQRSTISFRRQGSSGIVFDDRLIAELNKSGNNEQKDESQRDEQPKPMSESSEQVKPIDEKDKLRPIKTGGGAPGGIERSRSNGGGAQRHHRTTGRVSPAVDPPSPRISSCGCCSAFGKNPPGKKVNPRKRPPKRRSR”, for which the protein production entry is recorded as “failed”.
For the sequence “MEGSQQTITSKQLVRMLKDASRGSKGKGSGEMKFCFLIGAGASISSGIPSGAKLAWDWLQQIKEDCDGEDFEDWKIEIKMPDQHIEERVGEFYPEIYEKRFGHAPETGYDYIRGLMEGREPSLGYLILANIMVREKHNVVITTNFDNLLEDAIRTYTKEKPFIAGHEALADYVPKRSDRPIILKLHRDLFLQPFSDQLNTDILQAAWESILGKFLSDYHLIVLGYGGNDGSLMNYLLKLKNRKPIYWCVRNTDKATSKSLWNTLSPKAKRLLKNDGYLVPIDDFDRFMYDCYAALGYKFLEGIEKIEKPKSIHEILKPNYARIESIQTQLRQLSQTEEELSKESFQSIKSFLPDSWMWILKANQEKDIDKKDKIYREGIAKYPQDANLLGDYADFLCDICHD”, the protein production entry is “not failed”.
